Data as given in patent US20220144956A1 (published 2022).

These binders were tested against T1, human TGFßRII (antigen of the Octet experiments) (human, UniProt P37173 23-166).
T1 sequence (P37173 23-166): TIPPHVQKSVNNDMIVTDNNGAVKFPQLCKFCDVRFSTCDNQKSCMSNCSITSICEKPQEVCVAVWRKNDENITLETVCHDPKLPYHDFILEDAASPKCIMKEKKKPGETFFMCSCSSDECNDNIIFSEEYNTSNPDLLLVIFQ

Row | Binder | Kd [nM]
1 | TBRII-A_H1.1_L1 (antibody, V domains shown) VH: QLQVQESGPGLVKPSETLSLTCTVSGGSISNSYFSWGWIRQPPGKGLEWIGSFYYGEKTYYNPSLKSRATISIDTSKSQFSLKLSSVTAADTAVYYCPRGPTVIRGVIDSWGQGTLVTVSS VL: EIVLTQSPATLSLSPGERATLSCRASQSVRSYLAWYQQKPGQAPRLLIYDASNRATGIPARFSGSGSGTDFTLTISSLEPEDFAVYYCQQRSNWPPTFGQGTKVEIK | 2.1
2 | TBRII-A_H1.29_L1 (antibody, V domains shown) VH: QLQVQESGPGLVKPSETLSLTCTVSGGSISNSYFTWGWIRQPPGKGLEWIGSFYYGEKTYYNPSLKSRATISIDTSKSQFSLKLSSVTAADTAVYYCPRGPTMIRGVIDSWGQGTLVTVSS VL: EIVLTQSPATLSLSPGERATLSCRASQSVRSYLAWYQQKPGQAPRLLIYDASNRATGIPARFSGSGSGTDFTLTISSLEPEDFAVYYCQQRSNWPPTFGQGTKVEIK | 4.2
3 | TBRII-A_H1.51_L1 (antibody, V domains shown) VH: QLQVQESGPGLVKPSETLSLTCTVSGGSISNSYFSWGWIRQPPGKGLEWIGSFNYGEKTYYNPSLKSRATISIDTSKSQFSLKLSSVTAADTAVYYCPRGPTMIRGVIDSWGQGTLVTVSS VL: EIVLTQSPATLSLSPGERATLSCRASQSVRSYLAWYQQKPGQAPRLLIYDASNRATGIPARFSGSGSGTDFTLTISSLEPEDFAVYYCQQRSNWPPTFGQGTKVEIK | 53

More lines, now with the values ahead:

Row | Kd [nM] | Binder
4 | 16.8 | XENP37821 TBRII-A_H1.274_L1 (antibody, V domains shown) VH: QLQVQESGPGLVKPSETLSLTCTVSGGSISNAYFSWGWIRQPPGKGLEWIGSFNYGGKTYYNPSLKSRATISIDTSKNQFSLKLSSVTAADTAVYYCARGPTLIRGVIDSWGQGTLVTVSS VL: EIVLTQSPATLSLSPGERATLSCRASQSVRSYLAWYQQKPGQAPRLLIYDASNRATGIPARFSGSGSGTDFTLTISSLEPEDFAVYYCQQRSNWPPTFGQGTKVEIK
5 | 58.2 | XENP37817 TBRII-A_H1.272_L1 (antibody, V domains shown) VH: QLQVQESGPGLVKPSETLSLTCTVSGGSISSSYFSWGWIRQPPGKGLEWIGSFNYGGKTYYNPSLKSRATISIDTSKNQFSLKLSSVTAADTAVYYCARGPTTIRGVIDSWGQGTLVTVSS VL: EIVLTQSPATLSLSPGERATLSCRASQSVRSYLAWYQQKPGQAPRLLIYDASNRATGIPARFSGSGSGTDFTLTISSLEPEDFAVYYCQQRSNWPPTFGQGTKVEIK
6 | 58.9 | XENP37814 TBRII-A_H1.189_L1.53 (antibody, V domains shown) VH: QLQVQESGPGLVKPSETLSLTCTVSGGSISSSYFSWGWIRQPPGKGLEWIGSFYYGGKTYYNPSLKSRATISIDTSKNQFSLKLSSVTAADTAVYYCARGPTLIRGVIDSWGQGTLVTVSS VL: EIVLTQSPATLSLSPGERATLSCRASQSVRSYLAWYQQKPGQAPRLLIYDASNRATGIPARFSGSGSGTDFTLTISSLEPEDFAVYYCQQRSNYPPTFGQGTKVEIK
7 | 411 | XENP37815 TBRII-A_H1.271_L1.53 (antibody, V domains shown) VH: QLQVQESGPGLVKPSETLSLTCTVSGGSISSSYFSWHWIRQPPGKGLEWIGSFYYGGKTYYNPSLKSRATISIDTSKNQFSLKLSSVTAADTAVYYCARGPTLIRGVIDSWGQGTLVTVSS VL: EIVLTQSPATLSLSPGERATLSCRASQSVRSYLAWYQQKPGQAPRLLIYDASNRATGIPARFSGSGSGTDFTLTISSLEPEDFAVYYCQQRSNYPPTFGQGTKVEIK
8 | 7.7 | XENP37819 TBRII-A_H1.273_L1.53 (antibody, V domains shown) VH: QLQVQESGPGLVKPSETLSLTCTVSGGSISSSYFSWHWIRQPPGKGLEWIGSFYYGGKTYYNPSLKSRATISIDTSKNQFSLKLSSVTAADTAVYYCARGPTTIRGVIDSWGQGTLVTVSS VL: EIVLTQSPATLSLSPGERATLSCRASQSVRSYLAWYQQKPGQAPRLLIYDASNRATGIPARFSGSGSGTDFTLTISSLEPEDFAVYYCQQRSNYPPTFGQGTKVEIK
9 | 46.6 | XENP37822 TBRII-A_H1.201_L1.53 (antibody, V domains shown) VH: QLQVQESGPGLVKPSETLSLTCTVSGGSISNAYFSWGWIRQPPGKGLEWIGSFYYGGKTYYNPSLKSRATISIDTSKNQFSLKLSSVTAADTAVYYCARGPTLIRGVIDSWGQGTLVTVSS VL: EIVLTQSPATLSLSPGERATLSCRASQSVRSYLAWYQQKPGQAPRLLIYDASNRATGIPARFSGSGSGTDFTLTISSLEPEDFAVYYCQQRSNYPPTFGQGTKVEIK

Target: T1, human TGFßRII (antigen of the Octet …)
Remark: another data set of the same source

Row | Binder | Kd [nM]
10 | XENP36173 H1.190 L1 (antibody, V domains shown) VH: QLQVQESGPGLVKPSETLSLTCTVSGGSISSSYFSWGWIRQPPGKGLEWIGSFYYGGKTYYNPSLKSRATISIDTSKNQFSLKLSSVTAADTAVYYCARGPTTIRGVIDSWGQGTLVTVSS VL: EIVLTQSPATLSLSPGERATLSCRASQSVRSYLAWYQQKPGQAPRLLIYDASNRATGIPARFSGSGSGTDFTLTISSLEPEDFAVYYCQQRSNWPPTFGQGTKVEIK | 9.24
11 | XENP35105 H1.30 L1 (antibody, V domains shown) VH: QLQVQESGPGLVKPSETLSLTCTVSGGSISNSYFYWGWIRQPPGKGLEWIGSFYYGEKTYYNPSLKSRATISIDTSKSQFSLKLSSVTAADTAVYYCPRGPTMIRGVIDSWGQGTLVTVSS VL: EIVLTQSPATLSLSPGERATLSCRASQSVRSYLAWYQQKPGQAPRLLIYDASNRATGIPARFSGSGSGTDFTLTISSLEPEDFAVYYCQQRSNWPPTFGQGTKVEIK | 15.4
12 | XENP34288 H1.1 L1 (antibody, V domains shown) VH: QLQVQESGPGLVKPSETLSLTCTVSGGSISNSYFSWGWIRQPPGKGLEWIGSFYYGEKTYYNPSLKSRATISIDTSKSQFSLKLSSVTAADTAVYYCPRGPTVIRGVIDSWGQGTLVTVSS VL: EIVLTQSPATLSLSPGERATLSCRASQSVRSYLAWYQQKPGQAPRLLIYDASNRATGIPARFSGSGSGTDFTLTISSLEPEDFAVYYCQQRSNWPPTFGQGTKVEIK | 4.26
13 | XENP36172 H1.189 L1 (antibody, V domains shown) VH: QLQVQESGPGLVKPSETLSLTCTVSGGSISSSYFSWGWIRQPPGKGLEWIGSFYYGGKTYYNPSLKSRATISIDTSKNQFSLKLSSVTAADTAVYYCARGPTLIRGVIDSWGQGTLVTVSS VL: EIVLTQSPATLSLSPGERATLSCRASQSVRSYLAWYQQKPGQAPRLLIYDASNRATGIPARFSGSGSGTDFTLTISSLEPEDFAVYYCQQRSNWPPTFGQGTKVEIK | 6.99
14 | XENP36171 H1.188 L1 (antibody, V domains shown) VH: QLQVQESGPGLVKPSETLSLTCTVSGGSISSSYFSWGWIRQPPGKGLEWIGSFYYGGKTYYNPSLKSRATISIDTSKNQFSLKLSSVTAADTAVYYCARGPTMIRGVIDSWGQGTLVTVSS VL: EIVLTQSPATLSLSPGERATLSCRASQSVRSYLAWYQQKPGQAPRLLIYDASNRATGIPARFSGSGSGTDFTLTISSLEPEDFAVYYCQQRSNWPPTFGQGTKVEIK | 4.19
15 | XENP36166 H1.183 L1 (antibody, V domains shown) VH: QLQVQESGPGLVKPSETLSLTCTVSGGSISNSYFSWGWIRQPPGKGLEWIGSFYYGGKTYYNPSLKSRATISIDTSKNQFSLKLSSVTAADTAVYYCARGPTMIRGVFDSWGQGTLVTVSS VL: EIVLTQSPATLSLSPGERATLSCRASQSVRSYLAWYQQKPGQAPRLLIYDASNRATGIPARFSGSGSGTDFTLTISSLEPEDFAVYYCQQRSNWPPTFGQGTKVEIK | 6.15
16 | XENP36168 H1.185 L1 (antibody, V domains shown) VH: QLQVQESGPGLVKPSETLSLTCTVSGGSISESYFSWGWIRQPPGKGLEWIGSFYYGGKTYYNPSLKSRATISIDTSKNQFSLKLSSVTAADTAVYYCARGPTLIRGVIDSWGQGTLVTVSS VL: EIVLTQSPATLSLSPGERATLSCRASQSVRSYLAWYQQKPGQAPRLLIYDASNRATGIPARFSGSGSGTDFTLTISSLEPEDFAVYYCQQRSNWPPTFGQGTKVEIK | 7.26

Now from value to binder:

Row | Kd [nM] | Binder
17 | 7.43 | XENP36182 H1.199 L1 (antibody, V domains shown) VH: QLQVQESGPGLVKPSETLSLTCTVSGGSISQSYFSWGWIRQPPGKGLEWIGSFYYGGKTYYNPSLKSRATISIDTSKNQFSLKLSSVTAADTAVYYCARGPTVIRGVIDSWGQGTLVTVSS VL: EIVLTQSPATLSLSPGERATLSCRASQSVRSYLAWYQQKPGQAPRLLIYDASNRATGIPARFSGSGSGTDFTLTISSLEPEDFAVYYCQQRSNWPPTFGQGTKVEIK
18 | 8.4 | XENP36181 H1.198 L1 (antibody, V domains shown) VH: QLQVQESGPGLVKPSETLSLTCTVSGGSISQSYFSWGWIRQPPGKGLEWIGSFYYGGKTYYNPSLKSRATISIDTSKNQFSLKLSSVTAADTAVYYCARGPTTIRGVIDSWGQGTLVTVSS VL: EIVLTQSPATLSLSPGERATLSCRASQSVRSYLAWYQQKPGQAPRLLIYDASNRATGIPARFSGSGSGTDFTLTISSLEPEDFAVYYCQQRSNWPPTFGQGTKVEIK
19 | 6.07 | XENP36180 H1.197 L1 (antibody, V domains shown) VH: QLQVQESGPGLVKPSETLSLTCTVSGGSISQSYFSWGWIRQPPGKGLEWIGSFYYGGKTYYNPSLKSRATISIDTSKNQFSLKLSSVTAADTAVYYCARGPTLIRGVIDSWGQGTLVTVSS VL: EIVLTQSPATLSLSPGERATLSCRASQSVRSYLAWYQQKPGQAPRLLIYDASNRATGIPARFSGSGSGTDFTLTISSLEPEDFAVYYCQQRSNWPPTFGQGTKVEIK
20 | 8.43 | XENP36174 H1.191 L1 (antibody, V domains shown) VH: QLQVQESGPGLVKPSETLSLTCTVSGGSISSSYFSWGWIRQPPGKGLEWIGSFYYGGKTYYNPSLKSRATISIDTSKNQFSLKLSSVTAADTAVYYCARGPTVIRGVIDSWGQGTLVTVSS VL: EIVLTQSPATLSLSPGERATLSCRASQSVRSYLAWYQQKPGQAPRLLIYDASNRATGIPARFSGSGSGTDFTLTISSLEPEDFAVYYCQQRSNWPPTFGQGTKVEIK
21 | 6.44 | XENP36186 H1.203 L1 (antibody, V domains shown) VH: QLQVQESGPGLVKPSETLSLTCTVSGGSISNAYFSWGWIRQPPGKGLEWIGSFYYGGKTYYNPSLKSRATISIDTSKNQFSLKLSSVTAADTAVYYCARGPTVIRGVIDSWGQGTLVTVSS VL: EIVLTQSPATLSLSPGERATLSCRASQSVRSYLAWYQQKPGQAPRLLIYDASNRATGIPARFSGSGSGTDFTLTISSLEPEDFAVYYCQQRSNWPPTFGQGTKVEIK
22 | 8.42 | XENP36178 H1.195 L1 (antibody, V domains shown) VH: QLQVQESGPGLVKPSETLSLTCTVSGGSISTSYFSWGWIRQPPGKGLEWIGSFYYGGKTYYNPSLKSRATISIDTSKNQFSLKLSSVTAADTAVYYCARGPTVIRGVIDSWGQGTLVTVSS VL: EIVLTQSPATLSLSPGERATLSCRASQSVRSYLAWYQQKPGQAPRLLIYDASNRATGIPARFSGSGSGTDFTLTISSLEPEDFAVYYCQQRSNWPPTFGQGTKVEIK
